Entries after “also recorded” stand apart in the source; their conditions may differ.
T1: SapC induced membrane fusion (Homo sapiens, UniProt P07602)
T1 sequence (P07602 311-390 limits assumed): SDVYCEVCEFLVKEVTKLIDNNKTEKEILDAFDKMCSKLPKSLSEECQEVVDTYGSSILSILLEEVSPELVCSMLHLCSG

B1: SapC: human Saposin C, over expressed in E. coli as His-tag protein, HPLC purified (protein)
chain: T1 sequence (P07602 311-390 limits assumed)
modifications: His-tag
notes: human Saposin C, over expressed in E. coli as His-tag protein, HPLC purified

Key:
[1] = SANS of non-doped, H1-, H2- and SapC-doped DOPS/DPPC/DHPC mixtures (modified Guinier plot, ellipsoidal shell model fit); format: physicochemical; conditions: for effect of peptide on bilayer stability: SANS result; for effect of peptide on ULV size and size distribution / effect of peptide on membrane thickness: peptide 62.5 μM
Procedure: For preparation of liposomes containing protein, SapC was over expressed in E. coli cells using the IPTG-inducing pET system, and His-tag proteins were eluted from nickel columns. After dialysis, the proteins were further purified by HPLC chromatography as follows: The C4 reverse phase column was equilibrated with 0.1% trifluoroacetic acid (TFA) for 10 minutes, then the proteins were eluted in a linear (0-100%) gradient of 0.1% TFA in acetonitrile over 60 minutes. The major protein peak was collected and lyophilized, while protein concentrations were determined as described previously. H1 (YCEVCEFLVKEVTKLID) and H2 (EKEILDAF DKMCSKLPK) peptides were synthesized by SynPep Corp. (California, USA) and dissolved in D2O at a concentration of 1.5 mg/mL. The 0.1 wt. % lipid solution with [DOPS]/[DPPC]=10 and ([DPPC]+[DOPS]/DHPC=4 was then added to the two peptide solutions (1.5 mg/mL) at a volume ratio of 12:1, and the SapC solution with a volume ratio of 1:1, yielding a final peptide (or SapC) concentration of 62.5 μM, (molar ratio of [lipid]/[peptide]=22/1) a concentration higher than the SapC required to induce membrane destabilization. A sample containing only 6.25 μM of SapC ([lipid]/[SapC]=220/1) was also prepared for comparison purposes.
To determine the structure and stability of the resulting liposomes, the homogenized 10 wt. % solutions are first progressively diluted into 5, 2, 1, 0.5 and 0.1 wt. % samples. Prior to DLS measurements, the 0.1 wt. % stock lipid samples are diluted 5, 50 and 200 fold, and are analyzed using an N4^+ particle sizer (Coulter, Miami, Fla.). Using this method, it was determined that diluting the system had no effect on the size of the particles. For SANS experiments, the same sample preparation protocol was applied to the [DOPS]/[DPPC]=10 sample except that D2O (99.9%, Chalk River Laboratories, Chalk River, ON), instead of H2O, was used to obtain a sample with a total lipid concentration of 0.5 wt. %. The 0.5 wt. % sample was then further diluted into 0.1 and 0.05 wt. % mixtures using an acidic buffer composed of equal-volumes of 0.1N sodium acetate (NaAc) and 0.1N acetic acid (HAc).
SANS experiments were carried out on the 30 m NG7 SANS instrument located at the National Institute of Standards and Technology (NIST) Center for Neutron Research (NCNR, Gaithersburg, Md., USA). 8.09 Å wavelength (λ) neutrons, a neutron focusing lens and a long sample-to-detector distance (SDD=15.3 m) were used to reach the lowest scattering vectors [q=4π/λ·sin(θ/2), where θ is the scattering angle]. Two other SDD (5 and 1 m) were also used, covering a combined q range from 0.002 to 0.35 Å^−1 for all three SDD. Raw 2-D data were corrected for detector sensitivity, background, empty cell scattering and sample transmission. The corrected data were then circularly averaged, around the beam center, yielding the customary 1-D data. […] The incoherent plateau was determined by averaging the intensity of 10-20 high q data points and then subtracted from the reduced data.
For q>0.06 Å^−1 the differences in intensity among the three data sets (FIG. 2) are indistinguishable. Analysis of a modified Guinier plot^30 (also known as Kratky-Porod plot) applied to all three samples, where ln(I·q^2) has a linear relationship with q^2 in the range between 5×10^−3 and 2.5×10^−2 Å^−2, indicate the existence of a lamellar structure. […] The lines represent the best-fits to the data. The bilayer thickness is then derived from the square root of the slope multiplying by √{square root over (12)}.
The model for a unilamellar tri-axial ellipsoidal vesicle is depicted as an ellipsoidal shell (FIG. 4) with different core lengths along the three prime axes, acore, bcore and ccore (acore≦bcore≦ccore). The shell lengths along the axes, ashell, bshell and cshell, are defined as (acore+l), (bcore+l) and (ccore+l), respectively, where l is the bilayer thickness. […]

[2] = target: T1, SapC induced membrane fusion; conditions: reported by Wang et al.; cited from earlier work
[3] = AFM, supported membranes; cited from earlier work

Molecule	effect of peptide on bilayer stability [1]	effect of peptide on ULV size and size distribution [1]	effect of peptide on membrane thickness [1]	inhibition of SapC induced membrane fusion [2]	effect on destabilization and restructuring of lipid membranes [3]	effect of SapC on ULV ([1]; SapC 6.25 μM, [lipid]/[SapC]=220/1)	effect of SapC on ULV ([1]; SapC 62.5 μM, [lipid]/[SapC]=22/1, acetate D2O buffer)
EKEILDAFDKMCSKLPK [H2, helical domain peptide of SapC, synthesized by SynPep Corp]	do not destabilize the bilayer morphology	shifts the equilibrium between the two ULV aggregates present	small decreases to the membrane thickness	can inhibit SapC induced membrane fusion	neither H1 nor H2 alone have significant influence on membrane structure	–	–
YCEVCEFLVKEVTKLID [H1, helical domain peptide of SapC, synthesized by SynPep Corp]	do not destabilize the bilayer morphology	does not appear to modify ULV size or their size distribution	small decreases to the membrane thickness	can inhibit SapC induced membrane fusion	neither H1 nor H2 alone have significant influence on membrane structure	–	–
B1	–	–	–	–	can destabilize and restructure the acidic membrane	ULV structure is unperturbed; also recorded: do not appear to perturb the size of ULV or their membrane structure	promotes aggregation of ULV

— patent US20100311844A1, “Spontaneously Forming Ellipsoidal Phospholipid Unilamellar Vesicles” (priority 2006, published 2010)
